Data reported in the nanobody polyreactivity screen of Harvey et al. (2022).

Test: yeast display, Sf9 membrane polyspecificity reagent, FACS + sequencing; frameworks hold sequencing errors
Procedure, shortened: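 Nanobodies came from a synthetic yeast display library in Saccharomyces cerevisiae BJ5465, induced with galactose for 36–48 hours and stained for 1 hour at 4 °C with 10% biotinylated, detergent-solubilized Sf9 membrane reagent. Cells were enriched on streptavidin microbeads and then FACS-sorted, with low and high (top ~1%) gates set on anti-HA fluorescence for expression and streptavidin fluorescence for reagent binding. Each polyreactivity label reflects the gate a clone came from. Genes were amplified by colony PCR, sequenced by MiSeq 2 × 250 and filtered by CDR length.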

Sequence | polyreactivity (PSR sort gate)
QVQLVESGGGLVQAGGSLRLSCAASGIIFTFNARGWDRQAPGKERELVASISITGDTYYADSVKGRFTISRDNAKNTVYLQMNSLKPEDTAVYYCAAEYYFYSRHWYISYDYWGQGTQVTVSS | low polyreactivity
QVQLVESGGGLVQAGGSLRLSCAASGRTFYDYAMGWYRQAPGKERELVAASSRRAGSTYYADSVKGRFTISRDNAKNTVFLEMNSLKPEDTSVYYCAAAYYRRWWRGHHYAFDYWGQGSQVTVSS | high polyreactivity
QVQLVESGGGLVQAGGSLRLSCAASGRTFWTNAMGWYRQAPGKERELVAAIDRSSTSTYYADSVKGRFTISRDNAKNTVYLQMNSLKPEDTAVYYCAAENPVIVETPYGGFVGKGDSWGQGTQVTVSS | low polyreactivity
QVQLVESGGGLVHAGGSLRLSSSASGSTFPVYAMGWYRQAPGKQRELVAAITSGVSTNYADSVKWRFTISRENAKNTVYLQMNSLKPEDTAVYYCAKDFGLLPIRDDYWGQGTQVTVSS | low polyreactivity
QVQLVESGGGLVQAGGSLRLSCAASGSTFVIYAMGWYRQAPGKERELVAAIRLGGGSTYYADSVKGRFTISRDNANNTVYLQMNSLKPEDTAVYYCAAEVDQWYYRGYDYWGQGTQVTVSS | high polyreactivity
QVQLVESGGGLVQAGGSLRLSCAASGFTFKRYAMGWYRQAPGKERELVAAISWSGGSTYYADSVKGRFTISRDNAKNTVYLQMNSLKPEDTAVYYCAADGGSTEEYYYWGQGTQVTVSS | high polyreactivity
QVQLVESGGGLVQAGGSLRLSCAASGRIFSNNAMGWYRQAPGKERELVAAISSSGSTYYADSVKGRFTISRDNAKNTVYLLMNSLKPEDTAVYYCAVVYGYPYLRGYVYGFNYWGQGTQVTVSS | low polyreactivity
QVQLVESGGGLVQAGGSLRLSCAASGRIFIRNAMGWYRPAPGKERELVAAITQSGGSTYYADSVKGRFTISRDNAKNTVYLQMNSLKPEDTAVYYCAADGDNPYLHEEDYWGQGTQVTVSS | high polyreactivity
QVQLVESGGGLVQAGGSLRLSCAASGSTFTRNAMGWYRQAPGKERELVAVISSRGGRTYYADSVKGRFTISRDNAKNTVYLQMNSLKPEDTAVYYCAARYVIPLGNSYDYWGQGTQVTVSS | high polyreactivity
QVQLVESGGGLVQAGGSLRLSCAASGRTFNWYAMGWYRQAPGKESELVAAISSRGGSTYADSVKGRFTISRDNAKNTVYLQMNSLTPEDTAVYYCNADLLPADAPLWVTGGDYWGQGTQVTVSW | low polyreactivity
QVQLVESGGGLVQAGGSLRLSCAASGLTFPYYAMGWYRQAPGKERELVAAISNSGGSTYYADSVKGRFTISRDNAKNTVYLQMNIVKPEDTAVYYCAAYNSYSDYGYWGHGTQVTVSS | high polyreactivity
QVQLEESGGGLVQAGGSLRLSCAASGNILWKNAMGWYRQAPGKERELVAAITRSGGSTYYADSVKGRFTISRDNAKNTVYLQMNSLKPEDTAVYYCATRNLGYRPYRYDYWGQGTQVTVSS | high polyreactivity
QVQLVESGGGLVQAGGSLRLSCAASGFTFSSYAMGWYRQAPGKERELVAAINWSGGSTYYADSVKGRFTISRDNAKNTVYLQMNSLKPEDTAVYYCATSVKDRYWVDYWGQGTQVTVSS | high polyreactivity
QVQLVESGGGLVQAGGSLRLSCAASGRTFYYYGMGWYRQAPGKERELVASITNGGNTNYADSVKGRFTISRDNAKNTVYLQMNSLKPEDTAVYYCAKDVPYWRPVVRYDYWGQGTQVTVSS | low polyreactivity
QVQLVESGGGLVQAGGSLRLSCAASGIIFYYYAMGWYRQAPGKERELVAAISKSGGSTYYADSVKGRFTISRDNAKNTVYLQMNRLKPEDTAVYYCAARGPSWLSYNYWGQGTQVTVSS | high polyreactivity
QVQLVESGGGLVQAGGSLRLSCAASGYTFYVYAMGWYRQAPGTERELVADISTSDGSTYYADSVKGRFTISRDNAKNTVYLQMNSLKPEDTAVYYCNTDGSHGLYDWFWPANNDYWGQGTQVTVSS | low polyreactivity
QVQLVESGAGLVQAGGSLRLSCAASGLTFALYAMGGYRQAPGKERELVAAIDWSGGITYYADSVKGRFTISRDNAKNTVYLQLNSLKPEDTAVYYCAARPSTFKYKYGYWGQGTQVTVSS | high polyreactivity
QVQLVESGGGLVQAGGSLRLSCAASGSTSSLNAMGWYRQAPGKEREFVATISFGGGRTYYADSVKGRFTISRDNAKNTVYLQMNSLKPEDTAVYYCAAVGSRWFSQTWRDYWGQGTQVTVSS | high polyreactivity
QVQLVESGGGLVQAGGSLRLSCAASGITFLHYALGWYRQAPGKERELDAAISVRGGITYYADSVKGRFTISRDNAKNTVYLQMHSLKPEDTAVFYCAADRPKFYNSIYDYWGQGTQVTVSS | low polyreactivity
QVQLVESGGGLVQAGGSLRLSCAASGIIFWLYTMGWYRQAPGKERELVAAITSGGSTYYADSVKGRFTISRDNAKNTVYIQMNSLKPEDTAVYYCAAVPRYRRGKYDYWGQGTQVTVSS | high polyreactivity
QDQLVESGGGLVQAGGSLRLSCAASGLSFASYVMGWYRQAPGKERELVAAISSSGDSTYYADSVKGRFTLSRDNAKNTVYLQMNSLKPEDTAVYYCAAKDYVWGQGTQVTVSS | low polyreactivity
QVQLVESGGGLVQAGGSLRLRCAASGSIFVVNAMGWYRPAPGKERELVAAISWSDTTTYYADSVKARFTISRDNAKNTVYLQMNSLKPEDTAVYYCAAGFVIKYDYWGQGTQVTVSS | low polyreactivity
